Assay results taken from article PMC10771423, “Discovery and biochemical characterization of thermostable glycerol oxidases” (Applied Microbiology and Biotechnology, 2024).

B1: AldOAb (Actinomycetota bacterium) (protein)
chain: MTMRSTNWAGNVVYRASELHRPASLDELRRVVARSPKVRVLGSGHSFNEITDTEGALVSLEALPPEVEIDRATGTARVAAGLRYGELSARLHAAGYALPNLASLPHICVAGACATGTHGSGDGIGGLAGSVTAVELVTADGDLVTLSRDADPDRFPGAVVSLGALGAVVTMTLRLEPAFQVRQRVYENLPAEALDDHFDEIMASGYSVSLFTDWRGDRIRQVWVKERVGDPAAGGEEREPVVAALGATPADGPRHPVPGMPAANCTEQLGVPGPWHERLPHFRLGFTPSSGDELQAEYLLPRRHAVAAFHALAGIADRIAPVLHISEIRTVAADDLWLSPFHGRNTVAFHFTWKPDEAAVREVLSLMEEVLAPFEPRPHWGKLFAIPPKVLRSRYDRIGDFRALARELDPSGKFANAFVAHHVLDDE
B2: AldOTf (Thermopolyspora flexuosa) (protein)
chain: MRSTNWAGNVVFRASELHRPASIDELRRVVARSPKVRVLGSGHSFNEITDTDGTLVSLDALPPEVEIDGATGTARISAGLRYGELSRRLHAAGHALANLASLPHICVAGACATGTHGSGDGNGGLATSVTAVELVTGEGDLVTLSRDADPDRFPGAVVSLGALGVVVAMTLRLVPAFEVRQRVYENLPAEALAGHFDEIMASGYSVSLFTDWRGDRISQVWVKERVDASSGAPGDEREPVVAALGATPADGPRHPVPGMPAVNCTEQLGVPGPWFERLPHFRPEFTPSSGDELQAEYLLPRRHAVAAFQALAGIADRIAPVLHISEIRTVAADDLWLSPFHGRDTVAFHFTWKRDEAAVLDVLGLMEDVLAPFEPRPHWGKLFTIPPKVLHSRYDRMADFRALARELDPAGKFANAFVARHVLEIE
B3: AldOCh (Thermostaphylospora chromogena) (protein)
chain: MSPTLTNWAGNIVFRAGEVHRPETLEELRTLVTRADKVRVLGSGHSFNDIADSPGVLVSPSRLPRELELDTAAGAVRVSAGIRYAELSAWLHERGFALHNLASLPHISVAGSCATATHGSGDGNGNLATAVRALTLVTAEGDLVDLDRERDGDRFRGAVVGLGALGVVVSMTLDVEPTFEVRQRVYEDLPLEAACDHFSDIMGCAYSVSMFSDWTSSRINQVWVKERVDEDGSRPPGPASFGAKPADGPRHPIARMPAGNCTEQLGVPGPWFARLPHFRPEFTPSGGQERQAEYLVPRRHAVAALRELAAIGDRIAPVLQISEIRTIAADDLWLSPCQGRDTVGFHFTLIPDTAAVLPVLELIEERLAPFEARPHWGKLFTTPPAVLRSRYDRLPDFQALARDLDPGGKFANEFISRNLLDA

Experiments:
purified protein [1] = substrate: OC[C@@H](O)[C@H](O)[C@@H](O)CO; assay: purified protein; conditions: 50 mM KPi pH 7.5, 25 °C, O2 as co-substrate
purified protein [2] = substrate: OCC(O)CO; assay: purified protein; conditions: 50 mM KPi pH 7.5, 25 °C, O2 as co-substrate

Row | Protein | Km (purified protein [1]) [µM] | kcat (purified protein [1]) [s⁻¹] | kcat/Km (purified protein [1]) [M⁻¹ s⁻¹] | Km (purified protein [2]) [µM] | kcat (purified protein [2]) [s⁻¹] | kcat/Km (purified protein [2]) [M⁻¹ s⁻¹]
1 | B1 | 30 | 4.2 | 140000 | – | – | –
2 | B2 | 30 | 3.1 | 100000 | 50000 | 1.6 | 32
3 | B3 | 40 | 3.5 | 120000 | – | – | –
